# Measurements reported in US20240190915.
# Target: AGR2 (human, endogenous in PDAC cells) (UniProt O95994)
substance,measurement,value
"POLR2A (human, endogenous in PDAC cells)","phosphorylation levels of Ser2/5 residues (p-POLR2A^ser2/5) after AGR2 siRNA transfection, western blot","AGR2 downregulation (by siRNA transfection) reduces the phosphorylation levels of Ser2/5 residues (p-POLR2A^ser2/5), but not the POLR2A expression"
